Measured values from the nanobody polyreactivity screen of Harvey et al. (2022).

Assay: yeast display, Sf9 membrane polyspecificity reagent, FACS + sequencing; frameworks hold sequencing errors
Method in brief: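 Nanobodies came from a synthetic yeast display library in Saccharomyces cerevisiae BJ5465, induced with galactose for 36–48 hours and stained for 1 hour at 4 °C with 10% biotinylated, detergent-solubilized Sf9 membrane reagent. Cells were enriched on streptavidin microbeads and then FACS-sorted, with low and high (top ~1%) gates set on anti-HA fluorescence for expression and streptavidin fluorescence for reagent binding. Each polyreactivity label reflects the gate a clone came from. Genes were amplified by colony PCR, sequenced by MiSeq 2 × 250 and filtered by CDR length.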

Sequence	polyreactivity (PSR sort gate)
QVQLVESGGGLVQAGGRLRLSSAASGIIFGNNAMGWYRQAPGKERELVAAIRYSGGRTYYADSVKGRFTISRDIAKNTVYLQMNSLKPEDTAVYYCNALRRGPDGSDYWGQGTQVTVSS	high polyreactivity
QVQLVESGGGLVQAGGRLRLSSAASGRIFHSYAMGWYRQAPGKDRELVAGITSRGGTYYADSVKGRFTISRDNAKNTVYLQMNSLKPEDTAVYYCNADQALYSSGNKYDYWGQGTQVTVSS	low polyreactivity
QVQLVESGGGLVQAGGRLRLSSAASGSIFDLYAMGWYRQAPGKERELVASIRYSGGRTYYADSVKGRFTISRDNAKNSVYLQMNSLNPEDTAFYYCNRDGGYTFIMDYWGQGTQVTVSS	low polyreactivity
QVQLVESGGGLVQAGGRLRLSSAASRIIFRDNDMGWYRQAPGKERELVASISDSGGSTYYADSVKGRFTISRDNAKNTVYLQKNSLKSEATAVYYCAAPYLSLYLYDYWGQGTQVTVSS	low polyreactivity
QVQLVESGGGLVQAGGRLRLSSADYGITIELYVMGWYRQAPGKERELVAAINRGTSTYYADSVKGRFTISRDNAKNTVYLQMNSLKPEDTAVYYCAAESGVVALYRYDYWGQGTQVTVSS	low polyreactivity
QVQLVESGGGLVQAGGRLRLTCAASASIFHYNSMGWYRQATGKQRELVAAITSGGSTYADSVKGRFTISRDNAKNTVYLQMNSLKPEDTAVYYCNADSVGPRGDLGYWGQGTQVTVSS	low polyreactivity
QVQLVESGGGLVQAGGRLRLTCAASGRIFVIYAMRWYRQAPGKERELVAGITRGDRTYADSVKARFTISRDNAKNTVYLQMNSLKPEDTAVYYCNADTGYRFDYWGQGTQVTVSS	high polyreactivity
QVQLVESGGGLVQAGGRLSLSCAASGFIFDYYSMGWYRQAPGKERELVAAISWSGGSTYYADSVKGRFTISRDNAKNTVYLQMNSLKPEDTAVYYCNTYYQGYWGDFDYWGQGTQVTVSS	high polyreactivity
QVQLVESGGGLVQAGGSFRLSCAASGGTVDTYVMGWYRQAPGKERELVAVITRGASTYYADSVKGRFTISRDNAKNTVYLQMNSLKPEDTAVYYCAAACYSPDYYRFWYSFDYWGQGTQVTVSS	low polyreactivity
QVQLVESGGGLVQAGGSFRLSCAASGLISTTYAMGWYRQAPGKERELVAAINVSGGSTYYADSVKGRFTISRDHAKNTVYLQMNSLKPEDTAVYYCAARHDKRRQYYVGQSAFDYWGQGTQVTVSS	low polyreactivity
QVQLVESGGGLVQAGGSHRFSCAASGRIFYGHVMGWYRQAPGKERELVADISYDGGSTYYADSVKGRFTISRDNAKKTVYLQMNSLNPEDTAVYYGATRFVYRYTFWYYSTEYNYCGQGTQVTVSS	low polyreactivity
QVQLVESGGGLVQAGGSHRISCAASGFIFPYYAMGWYRQAPGKERELVAAITSGGSTNYADSVKGRFTISRDNAKNTVYLQMTSLKPEDTAVYYCDKRLKRWSVYCRYDYWGQGTQVTVSS	high polyreactivity
QVQLVESGGGLVQAGGSHRLSCAACGYIFFYNAMGWYRQAPGKERELVASITYRGGSTYYADSVKGRFTISRDNAKNSVYLQMNSLKPEDTAVYYCNVDGGGPLGPQGFPFDYWGQGTQVTVSS	low polyreactivity
QVQLVESGGGLVQAGGSHRLSCAASGFTFNKYAMGWYRQAPRKERELVAAISSSGGRTSYADSVKGRFTISRDNAKNTVYLQMNSVKPEDTAVYYCNKVSTADMGYWGQGTQVTVSS	high polyreactivity
QVQLVESGGGLVQAGGSHRLSCAASGFTIVQYAMGWYRQAPGKERELVARISRNGGSTYYADSVKGRFTISRDNAKNTVYLQMNSLKPEDTAVYYCNALRGPVKYYSWGQGTQVTVSS	low polyreactivity
QVQLVESGGGLVQAGGSHRLSCAASGGIAGNTMGWYRQAPGKERELVAAITRSGGRTYYADSVKGRFTISRDNAKNTVYLQMNSLKPEDTAVYYCAVTGLVRRRYGYWGQGTQVTVSS	high polyreactivity
QVQLVESGGGLVQAGGSHRLSCAASGGTYITNAMGWYRQAPGKERELVAAITSGGRTTYADSVKGRFTISRDNAKNTVYLQMNSLKPEDTAVYYCAADHVYSYTYNFDYWGQGTLVTVSS	low polyreactivity
QVQLVESGGGLVQAGGSHRLSCAASGITFARYAIGWSRQAPGKEREFLAAISWSGGNTYYADSVKGRFTISRDYAKNTVYLQLNSLKTEDTAVYYCAAESKGSWRYYYRFYYWGQGTQVTVSS	high polyreactivity
QVQLVESGGGLVQAGGSHRLSCAASGLIFNYYAMGGYRQAPGKERELVASITGGDSTNYADSVKGRFTISRDNAKNTVYLQMNSLKPEDTAVYYCAAEFYGSSYGYRTYDYYYWGQGTQVTVSS	low polyreactivity
QVQLVESGGGLVQAGGSHRLSCAASGLTFVDNAMGWYRQAPGKDRELVAANSYNGGSTYYADSVKGRFTISRDNAKNTVYLQLHRLKPEDTAVYYCAADISVGRYGDMDDWGQGTQVTVSS	low polyreactivity
QVQLVESGGGLVQAGGSHRLSCAASGRIFFPYDMGWYRQAPGKDRELVAAITNSGGRTYYADSVKGRFTISRDNAKNTVYLQMNSLKPEDSAVYYCAAEYVSAKWEYGYWGQGTQVTVSS	low polyreactivity
